Target: the molecule itself
Test: SEC; Superdex 200 Increase 10/300 GL, 25 mM HEPES pH 7.5, 100 mM NaCl, 0.03% DDM; elution volume compared with the trimeric molecular weight

B1: MdtF, multidrug efflux HAE-RND transporter from Escherichia coli (natural protein)
chain: MANYFIDRPVFAWVLAIIMMLAGGLAIMNLPVAQYPQIAPPTITVSATYPGADAQTVEDSVTQVIEQNMNGLDGLMYMSSTSDAAGNASITLTFETGTSPDIAQVQVQNKLQLAMPSLPEAVQQQGISVDKSSSNILMVAAFISDNGSLNQYDIADYVASNIKDPLSRTAGVGSVQLFGSEYAMRIWLDPQKLNKYNLVPSDVISQIKVQNNQISGGQLGGMPQAADQQLNASIIVQTRLQTPEEFGKILLKVQQDGSQVLLRDVARVELGAEDYSTVARYNGKPAAGIAIKLAAGANALDTSRAVKEELNRLSAYFPASLKTVYPYDTTPFIEISIQEVFKTLVEAIILVFLVMYLFLQNFRATIIPTIAVPVVILGTFAILSAVGFTINTLTMFGMVLAIGLLVDDAIVVVENVERVIAEDKLPPKEATHKSMGQIQRALVGIAVVLSAVFMPMAFMSGATGEIYRQFSITLISSMLLSVFVAMSLTPALCATILKAAPEGGHKPNALFARFNTLFEKSTQHYTDSTRSLLRCTGRYMVVYLLICAGMAVLFLRTPTSFLPEEDQGVFMTTAQLPSGATMVNTTKVLQQVTDYYLTKEKDNVQSVFTVGGFGFSGQGQNNGLAFISLKPWSERVGEENSVTAIIQRAMIALSSINKAVVFPFNLPAVAELGTASGFDMELLDNGNLGHEKLTQARNELLSLAAQSPNQVTGVRPNGLEDTPMFKVNVNAAKAEAMGVALSDINQTISTAFGSSYVNDFLNQGRVKKVYVQAGTPFRMLPDNINQWYVRNASGTMAPLSAYSSTEWTYGSPRLERYNGIPSMEILGEAAAGKSTGDAMKFMADLVAKLPAGVGYSWTGLSYQEALSSNQAPALYAISLVVVFLALAALYESWSIPFSVMLVVPLGVVGALLATDLRGLSNDVYFQVGLLTTIGLSAKNAILIVEFAVEMMQKEGKTPIEAIIEAARMRLRPILMTSLAFILGVLPLVISHGAGSGAQNAVGTGVMGGMFAATVLAIYFVPVFFVVVEHLFARFKKA
notes: MdtF, RND inner membrane transporter of the MdtEF system, Escherichia coli; gene PCR amplified from E. coli genomic DNA, cloned into pET21a(+) between NdeI and XhoI; wild type; the whole gene appears to have been cloned. ~110 kDa band on SDS-PAGE; source: E. coli BL21ΔacrB acrD mdtABC (NKE1317), purified (2% DDM extraction, Ni-NTA, SEC in 0.03% DDM)
stoichiometry N: 3

B2: MdtB, multidrug efflux HAE-RND transporter from Escherichia coli (natural protein)
chain: MQVLPPSSTGGPSRLFIMRPVATTLLMVAILLAGIIGYRALPVSALPEVDYPTIQVVTLYPGASPDVMTSAVTAPLERQFGQMSGLKQMSSQSSGGASVITLQFQLTLPLDVAEQEVQAAINAATNLLPSDLPNPPVYSKVNPADPPIMTLAVTSTAMPMTQVEDMVETRVAQKISQISGVGLVTLSGGQRPAVRVKLNAQAIAALGLTSETVRTAITGANVNSAKGSLDGPSRAVTLSANDQMQSAEEYRQLIIAYQNGAPIRLGDVATVEQGAENSWLGAWANKEQAIVMNVQRQPGANIISTADSIRQMLPQLTESLPKSVKVTVLSDRTTNIRASVDDTQFELMMAIALVVMIIYLFLRNIPATIIPGVAVPLSLIGTFAVMVFLDFSINNLTLMALTIATGFVVDDAIVVIENISRYIEKGEKPLAAALKGAGEIGFTIISLTFSLIAVLIPLLFMGDIVGRLFREFAITLAVAILISAVVSLTLTPMMCARMLSQESLRKQNRFSRASEKMFDRIIAAYGRGLAKVLNHPWLTLSVALSTLLLSVLLWVFIPKGFFPVQDNGIIQGTLQAPQSSSFANMAQRQRQVADVILQDPAVQSLTSFVGVDGTNPSLNSARLQINLKPLDERDDRVQKVIARLQTAVDKVPGVDLFLQPTQDLTIDTQVSRTQYQFTLQATSLDALSTWVPQLMEKLQQLPQLSDVSSDWQDKGLVAYVNVDRDSASRLGISMADVDNALYNAFGQRLISTIYTQANQYRVVLEHNTENTPGLAALDTIRLTSSDGGVVPLSSIAKIEQRFAPLSINHLDQFPVTTISFNVPDNYSLGDAVQAIMDTEKTLNLPVDITTQFQGSTLAFQSALGSTVWLIVAAVVAMYIVLGILYESFIHPITILSTLPTAGVGALLALLIAGSELDVIAIIGIILLIGIVKKNAIMMIDFALAAEREQGMSPREAIYQACLLRFRPILMTTLAALLGALPLMLSTGVGAELRRPLGIGMVGGLIVSQVLTLFTTPVIYLLFDRLALWTKSRFARHEEEA
notes: MdtB, RND inner membrane transporter of the MdtABC system, Escherichia coli; gene PCR amplified from E. coli genomic DNA, cloned into pET21a(+) between NdeI and XhoI; wild type; the whole gene appears to have been cloned. ~110 kDa band on SDS-PAGE; also called homotrimeric MdtB; source: E. coli BL21ΔacrB acrD mdtABC (NKE1317), purified (2% DDM extraction, Ni-NTA, SEC in 0.03% DDM); for cryo-EM …
stoichiometry N: 3
